Reference: patent publication US7709606B2, “Interacting polypeptide comprising a heptapeptide pattern and a cellular penetration domain” (Ecole Normale Superieure de Lyon, priority 2003, dated 2010)
Substitutions are numbered along the chain they refer to. Like-named read-outs stand apart in the source and are kept apart here.

Assays:
HIV-1/Ba-L = assay: antiviral test in monocyte-derived macrophages (MDM), RT activity; format: cell-based; details: for inhibition of HIV replication: 2 μM on day 14; for Percentage inhibition, Mean / ED70 / ED90: MDMs, HIV-1/Ba-L
Method: (§1) These viruses were amplified in vitro with umbilical blood mononuclear cells (UBMC) activated with PHA-P. The cell-free supernatant was centrifuged at […] for 10 minutes to eliminate soluble factors, and the residue was re-suspended in cell culture medium. Virus stocks were titrated using PBMC cells activated with PHA-P and 50% tissue culture infectious doses (TCID50) were calculated using Kärber's formula.
The MDM cells were pre-treated for 30 minutes in 6 concentrations of different molecules and infected with 30000 TCID50 of the HIV-1/Ba-L strain. AZT (0.8, 4, 20, 100 and 500 nM) and indinavir (0.8, 4, 20, 100 and 500 nM) were used as the control. […] The molecules were maintained for 7 days post infection, and the cellular supernatant was harvested 7, 14 and 21 days post infection and stored at −20° C. to measure viral replication by reverse transcriptase activity (RT) assay.
(§2) HIV replication was analyzed by assaying the RT activity in the supernatants from cell cultures using the RetroSys RT kit (Innovagen). The experiments were carried out 3 times and the results are expressed as the mean of the RT activity±the standard deviation (SD).

Tat = target: T1, Tat (Human immunodeficiency virus type 1 group M subtype B, UniProt P04608); assay: Tat functional test, LTR HIV-CAT reporter in HeLa cells; format: cell-based, HIV-1; details: higher concentrations
T1 construct: expressed in transfected cells; host or cells: HeLa
Method: The effect of the 4 SHPTs on the transactivation of the HIV-1 promoter by Tat was evaluated by transitory expression experiments in HeLa cells.

Rev/RRE association = Rev/RRE association (Human immunodeficiency virus type 1 group M subtype B, UniProt P04618); details: Rev produced in bacteria, RRE RNA probe
Method: To this end, gel retard experiments were carried out with a RNA molecule corresponding to the RRE element as the probe. The Rev protein produced in bacteria binds to this RNA and induces a non denaturing polyacrylamide gel migration retardation.

Jurkat cells = assay: intracellular entry, immunofluorescence in Jurkat cells; format: cell-based; details: 2 μM for one hour, analyzed 24 h later
Method: Light transmission and fluorescence images are shown for representative cells.
The immunofluorescence tests were carried out with a primary anti-FLAG antibody in a dilution of 1:500 incubated for 2 hours and a secondary antibody coupled to the Alexa Fluor 488 fluorophore (Molecular Probes) diluted 1:1000, incubated for one hour.
To confirm that SHPs do indeed enter the cell, immunofluorescence analyses were also carried out. Jurkat cells were incubated with 1 μM of SHP for 4 hours and after washing twice, the cells were cultured for 24 hours.

HIV-1-LA1 = assay: antiviral test in PHA-P activated PBMC, RT activity; format: cell-based; details: for anti-HIV activity, replication of HIV-1-LA1: PBMC activated by PHA-P, 7th day, in words; for Percentage inhibition, Mean: HIV-1 LA1, day 7; for reduction of HIV-1 replication: PBMC activated with PHA-P
Method: as §1
PBMC cells were pre-treated for 30 minutes by 5 concentrations of each molecule and infected with 75 TCID50 of the HIV-1-LA1 strain. AZT (1.6, 8, 40, 200 and 1000 nM) and indinavir (1.6, 8, 40, 200 and 1000 nM) were used as the control. […] The molecules were maintained throughout culture, and the cellular supernatant was harvested 7 days post infection and stored at −20° C. to measure viral replication by reverse transcriptase activity (RT) assay.
as §2
In a last step, it was examined whether SHPs were actually capable of inhibiting HIV-1 replication. This was carried out in PBMCs activated by PHA-P and in MDMs. […] The effects of different SHPs was thus tested at this time. AZT and indinavir were used as controls.

GST-Rev = GST-Rev (Human immunodeficiency virus type 1 group M subtype B, UniProt P04618); details: eluted with glutathione, immunoblot
Method: GXT-Rev was produced in bacteria and loaded onto an agarose-glutathion column. […] After rinsing, the proteins were eluted with glutathione. An aliquot of the feed, rinse and elution fractions was analyzed by immunoblot for GST-Rev (top graph) and for SHP using antibodies against GST or against FLAG respectively.
The SHPR activity was evaluated using the reporter construct pDM128 which included the coding sequence CAT and an RRE motif in an intron. Expression of Rev stimulated expression of CAT allowing an unspliced messenger to be exported to the cytoplasm. […] It was verified whether this inhibition was in fact directly correlated with a protein-protein interaction as predicted. To this end, both Rev and the SHPRs were produced in bacteria. […] Rev was expressed in fusion with GST and coupled to glutathione-agarose beads.

[1] = test system: PBMCs (resting and activated lymphocytes); assay: penetration into PBMCs and stability in medium, anti-FLAG immunoblot; format: cell-based, human
Method: Mononuclear cells were prepared from peripheral blood, either directly (A) or after activation with PHA (phytohemagglutinin) and IL-2 (interleukin 2) (B), then incubated with 2 μM of SHPR-190. At the times indicated after addition of the interacting peptide, an aliquot of supernatant was analyzed by immunoblot using antibodies against FLAG (A, lines 1 to 4; B, lines 1 to 3). The cells were collected and lysed in RIPA buffer. The extract obtained was analyzed by immunoblot as described for the supernatant (A, lines 5 and 6; B, line 4). In portion A, the exposure times were different between lines 5 and 6 (30 s) and lines 1 to 4 (5 s).
To evaluate the capacity of SHPs to penetrate into cells, PBMCs were cultivated in medium supplemented with 2 μM of SHPR-190. At different times, an aliquot of supernatant was removed and the cells were collected. After washing several times, the cells were lysed in RIPA buffer and the supernatant as well as that which was extracted was analyzed by immunoblot using an antibody directed against the FLAG eiptope, which is present at the N-terminal end of SHP produced in bacteria.

Rev = Rev (Human immunodeficiency virus type 1 group M subtype B, UniProt P04618); details: HeLa cells
Method: This type of indicative construct allowed an evaluation of the effect of Rev, which by causing transport towards the cytoplasm of the non spliced RNA, allowed expression of the CAT enzyme.
The CAT activity was measured using the CAT ELISA kit (Roche).
These various mutants were tested using a transitory expression system consisting of transfecting HeLa cells of the reporter plasmid having the CAT sequence associated with the RRE in the intronic position with expression vectors for the Rev protein and the SHPR protein. […] The separation between the two values was less than 20%.
These vectors were transfected with the reporter plasmid pDM128 and the expression vector Rev as described in the above sections (and in Roisin et al, JBC (2004) 279: 9208). The quantity of CAT protein is expressed as a % of that corresponding to transfection of parental SHPR. A value of more than 100 thus indicates a negative effect on the inhibiting power of SHPR and a lower value indicates an increase in this inhibiting property.

T1 sequence (P04608 whole entry): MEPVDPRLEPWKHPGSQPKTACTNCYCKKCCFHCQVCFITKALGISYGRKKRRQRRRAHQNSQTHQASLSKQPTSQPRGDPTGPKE

B1: SHPT-8: SUMO-1-heptapeptide-Tat PTD protein selected against Tat; heptapeptide Phe Thr Met Arg Gly Val Asp (SEQ ID NO: 38) (protein)
chain: MSDQEAKPSTEDLGDKKEGEYIKLKVIGQDSSEIHFKVKMTTHLKKLKESYCQRQGVPMNSLRFLFEGQRIADNHTPKELGMEEEDVIEVYQEQTARPPNPKKEIELGGGGSFTMRGVDPGRKKRRQRRRG
With B1 the “inhibition of HIV replication” value (HIV-1/Ba-L; MDM) was 69±6%, the “Percentage inhibition, Mean” value (HIV-1/Ba-L; Day 7, dose 62.5 (nM)) was 5% and the “Percentage inhibition, Mean” value (HIV-1/Ba-L; Day 7, dose 125 (nM)) was 39%. For the same molecule, the “Percentage inhibition, Mean” value (HIV-1/Ba-L; Day 7, dose 250 (nM)) was 78%, the “Percentage inhibition, Mean” value (HIV-1/Ba-L; Day 7, dose 500 (nM)) was 78% and the “Percentage inhibition, Mean” value (HIV-1/Ba-L; Day 7, dose 1000 (nM)) was 70%. The “Percentage inhibition, Mean” value (HIV-1/Ba-L; Day 7, dose 2000 (nM)) was 84%, the ED70 (HIV-1/Ba-L; Day 14) was 2050 nM and the ED90 (HIV-1/Ba-L; Day 14) was 5500 nM. For the same molecule, the “Percentage inhibition, Mean” value (HIV-1/Ba-L; Day 14, dose 62.5 (nM)) was 0%, the “Percentage inhibition, Mean” value (HIV-1/Ba-L; Day 14, dose 125 (nM)) was 2% and the “Percentage inhibition, Mean” value (HIV-1/Ba-L; Day 14, dose 250 (nM)) was 55%. For the same molecule, the “Percentage inhibition, Mean” value (HIV-1/Ba-L; Day 14, dose 500 (nM)) was 50%, the “Percentage inhibition, Mean” value (HIV-1/Ba-L; Day 14, dose 1000 (nM)) was 46% and the “Percentage inhibition, Mean” value (HIV-1/Ba-L; Day 14, dose 2000 (nM)) was 69%. The “Percentage inhibition, Mean” value (HIV-1/Ba-L; Day 21, dose 62.5 (nM)) was 0%, the “Percentage inhibition, Mean” value (HIV-1/Ba-L; Day 21, dose 125 (nM)) was 5% and the “Percentage inhibition, Mean” value (HIV-1/Ba-L; Day 21, dose 250 (nM)) was 37%. For the same molecule, the “Percentage inhibition, Mean” value (HIV-1/Ba-L; Day 21, dose 500 (nM)) was 21%, the “Percentage inhibition, Mean” value (HIV-1/Ba-L; Day 21, dose 1000 (nM)) was 20% and the “Percentage inhibition, Mean” value (HIV-1/Ba-L; Day 21, dose 2000 (nM)) was 59%. The “Tat transactivation of the HIV-1 promoter” value (Tat) was “slight reduction in transactivation”, the “effect on Rev/RRE association (gel retardation)” value (Rev/RRE association) was “no particular effect” and the “immunofluorescence with antibody against FLAG” value (Jurkat cells) was “diffuse fluorescence”. The “anti-HIV activity, replication of HIV-1-LA1” value (HIV-1-LA1) was “did not have any anti-HIV activity”, the “Percentage inhibition, Mean” value (HIV-1-LA1; PBMCs, Dose 31 (nM)) was 0% and the “Percentage inhibition, Mean” value (HIV-1-LA1; PBMCs, Dose 62.5 (nM)) was 0%. The “Percentage inhibition, Mean” value (HIV-1-LA1; PBMCs, Dose 125 (nM)) was 0%, the “Percentage inhibition, Mean” value (HIV-1-LA1; PBMCs, Dose 250 (nM)) was 0% and the “Percentage inhibition, Mean” value (HIV-1-LA1; PBMCs, Dose 500 (nM)) was 0%. For the same molecule, the “Percentage inhibition, Mean” value (HIV-1-LA1; PBMCs, Dose 1000 (nM)) was 0%, the “Percentage inhibition, Mean” value (HIV-1-LA1; PBMCs, Dose 2000 (nM)) was 0% and the “co-elution with GST-Rev” value (GST-Rev) was “no SHPT was present in fractions containing GST-Rev”. The “co-elution with GST-Rev” value (GST-Rev; listed as SHPR-8) was “did not bind to the protein on the column”.

B2: SHPR-190: SUMO-1-heptapeptide-Tat PTD protein against Rev; heptapeptide Asn Trp Leu Cys Cys Leu Asn (SEQ ID NO: 3) (protein)
chain: B1 chain with F113N, T114W, M115L, R116C, G117C, V118L, D119N
With B2 the “inhibition of HIV replication” value (HIV-1/Ba-L; MDM) was 92±2%, the “anti-HIV activity, HIV-1/Ba-L replication” value (HIV-1/Ba-L; MDM, in words) was “dose-dependent” and the “Percentage inhibition, Mean” value (HIV-1/Ba-L; Day 7, dose 62.5 (nM)) was 0%. For the same molecule, the “Percentage inhibition, Mean” value (HIV-1/Ba-L; Day 7, dose 125 (nM)) was 34%, the “Percentage inhibition, Mean” value (HIV-1/Ba-L; Day 7, dose 250 (nM)) was 50% and the “Percentage inhibition, Mean” value (HIV-1/Ba-L; Day 7, dose 500 (nM)) was 89%. The “Percentage inhibition, Mean” value (HIV-1/Ba-L; Day 7, dose 1000 (nM)) was 94%, the “Percentage inhibition, Mean” value (HIV-1/Ba-L; Day 7, dose 2000 (nM)) was 99% and the ED70 (HIV-1/Ba-L; Day 14) was 1040 nM. The ED90 (HIV-1/Ba-L; Day 14) was 1450 nM, the “Percentage inhibition, Mean” value (HIV-1/Ba-L; Day 14, dose 62.5 (nM)) was 0% and the “Percentage inhibition, Mean” value (HIV-1/Ba-L; Day 14, dose 125 (nM)) was 0%. For the same molecule, the “Percentage inhibition, Mean” value (HIV-1/Ba-L; Day 14, dose 250 (nM)) was 0%, the “Percentage inhibition, Mean” value (HIV-1/Ba-L; Day 14, dose 500 (nM)) was 66% and the “Percentage inhibition, Mean” value (HIV-1/Ba-L; Day 14, dose 1000 (nM)) was 70%. For the same molecule, the “Percentage inhibition, Mean” value (HIV-1/Ba-L; Day 14, dose 2000 (nM)) was 92%, the ED70 (HIV-1/Ba-L; Day 21) was greater than 2000 nM and the ED90 (HIV-1/Ba-L; Day 21) was greater than 2000 nM. The “Percentage inhibition, Mean” value (HIV-1/Ba-L; Day 21, dose 62.5 (nM)) was 0%, the “Percentage inhibition, Mean” value (HIV-1/Ba-L; Day 21, dose 125 (nM)) was 0% and the “Percentage inhibition, Mean” value (HIV-1/Ba-L; Day 21, dose 250 (nM)) was 0%. For the same molecule, the “Percentage inhibition, Mean” value (HIV-1/Ba-L; Day 21, dose 500 (nM)) was 28%, the “Percentage inhibition, Mean” value (HIV-1/Ba-L; Day 21, dose 1000 (nM)) was 50% and the “Percentage inhibition, Mean” value (HIV-1/Ba-L; Day 21, dose 2000 (nM)) was 60%. The “stability in the culture medium” value ([1]; 2 μM in PBMC culture supernatant) was “stable in the culture medium”, the “presence inside the cell” value ([1]; 2 μM, resting and activated lymphocytes) was “a fraction of the protein was present inside the cell” and the intracellular concentration ([1]; external concentration of 2 μM, lymphocyte assumed a sphere 12μ in diameter) was 15 µM. The “effect on Rev/RRE association (gel retardation)” value (Rev/RRE association) was “did not inhibit this association”, the “immunofluorescence with antibody against FLAG” value (Jurkat cells) was “diffuse fluorescence” and the “inhibition of the function of Rev (CAT from pDM128)” value (Rev) was “effective inhibitors of the function of Rev”. The “anti-HIV activity, replication of HIV-1-LA1” value (HIV-1-LA1) was “reduced replication”, the “reduction of HIV-1 replication” value (HIV-1-LA1; 1 μM) was 80±7% and the “reduction of HIV-1 replication” value (HIV-1-LA1; 2 μM) was 100%. The ED70 (HIV-1-LA1; PBMCs, HIV-1-LA1, 7th day) was 720 nM, the ED90 (HIV-1-LA1; PBMCs, HIV-1-LA1, 7th day) was 927 nM and the “Percentage inhibition, Mean” value (HIV-1-LA1; PBMCs, Dose 31 (nM)) was 0%. For the same molecule, the “Percentage inhibition, Mean” value (HIV-1-LA1; PBMCs, Dose 62.5 (nM)) was 0%, the “Percentage inhibition, Mean” value (HIV-1-LA1; PBMCs, Dose 125 (nM)) was 0% and the “Percentage inhibition, Mean” value (HIV-1-LA1; PBMCs, Dose 250 (nM)) was 0%. The “Percentage inhibition, Mean” value (HIV-1-LA1; PBMCs, Dose 500 (nM)) was 38%, the “Percentage inhibition, Mean” value (HIV-1-LA1; PBMCs, Dose 1000 (nM)) was 80% and the “Percentage inhibition, Mean” value (HIV-1-LA1; PBMCs, Dose 2000 (nM)) was 100%.
